Laboratory results published in patent US8119354B2, “Cell-free assay product and method of use thereof for measuring activity of frizzled receptors” (Universitaet Konstanz, priority 2007, dated 2012).

B1: Wnt5a: Wnt ligand (secreted Wnt family protein), frizzled receptor agonist (protein, UniProt P41221 62-380, looked up)
Protein Wnt-5a: IIGAQPLCSQLAGLSQGQKKLCHLYQDHMQYIGEGAKTGIKECQYQFRHRRWNCSTVDNTSVFGRVMQIGSRETAFTYAVSAAGVVNAMSRACREGELSTCGCSRAARPKDLPRDWLWGGCGDNIDYGYRFAKEFVDARERERIHAKGSYESARILMNLHNNEAGRRTVYNLADVACKCHGVSGSCSLKTCWLQLADFRKVGDALKEKYDSAAAMRLNSRGKLVQVNSRFNSPTTQDLVYIDPSPDYCVRNESTGSLGTQGRLCNKTSEGMDGCELMCCGRGYDQFKTVQTERCHCKFHWCCYVKCKKCTEIVDQFVCK
B2: Wnt5b: Wnt ligand (secreted Wnt family protein), frizzled receptor agonist (protein, UniProt Q9H1J7 18-359, looked up)
Protein Wnt-5b: QLLTDANSWWSLALNPVQRPEMFIIGAQPVCSQLPGLSPGQRKLCQLYQEHMAYIGEGAKTGIKECQHQFRQRRWNCSTADNASVFGRVMQIGSRETAFTHAVSAAGVVNAISRACREGELSTCGCSRTARPKDLPRDWLWGGCGDNVEYGYRFAKEFVDAREREKNFAKGSEEQGRVLMNLQNNEAGRRAVYKMADVACKCHGVSGSCSLKTCWLQLAEFRKVGDRLKEKYDSAAAMRVTRKGRLELVNSRFTQPTPEDLVYVDPSPDYCLRNESTGSLGTQGRLCNKTSEGMDGCELMCCGRGYNQFKSVQVERCHCKFHWCCFVRCKKCTEIVDQYICK
B3: Wnt7a: Wnt ligand (secreted Wnt family protein), frizzled receptor agonist (protein, UniProt O00755 32-349, looked up)
Protein Wnt-7a: LGASIICNKIPGLAPRQRAICQSRPDAIIVIGEGSQMGLDECQFQFRNGRWNCSALGERTVFGKELKVGSREAAFTYAIIAAGVAHAITAACTQGNLSDCGCDKEKQGQYHRDEGWKWGGCSADIRYGIGFAKVFVDAREIKQNARTLMNLHNNEAGRKILEENMKLECKCHGVSGSCTTKTCWTTLPQFRELGYVLKDKYNEAVHVEPVRASRNKRPTFLKIKKPLSYRKPMDTDLVYIEKSPNYCEEDPVTGSVGTQGRACNKTAPQASGCDLMCCGRGYNTHQYARVWQCNCKFHWCCYVKCNTCSERTEMYTCK

Key:
[1] = Solubility of purified Wnt3A after heparin chromatography; assay type: physicochemical; settings: 1×PBS, 1M NaCl, 1% CHAPS, pH7.3
Experimental: To purify Wnt protein as an example for a typical Fz ligand LWnt3A or LWnt5A cell lines producing and secreting Wnt proteins were used. By growing the cells adherent for 4 days from a 1:10 to 1:20 split high amounts of Wnt-3A were obtained. The medium was DMEM plus 10% FBS, omitting the serum lowers the levels of Wnt protein in the medium. The Wnt containing medium was filtered, detergent was added (Triton X-100 or CHAPS) to a final concentration of 1%, and the medium was refiltered just before applying the material to Blue Sepharose.
Purification by Blue Sepharose fractionation yielded pure Wnt protein, wherein Wnt3A conditioned medium was applied on a Blue Sepharose HP column. Wnt elution from Blue Sepharose was done in a single step from 150 mM to 1.5 M KCl. Approximately, half of the Wnt protein eluted immediately with the salt and the majority of contaminants, but the other half was retained and eluted later in a second pool. This second pool contained much less total protein and consequently contained a higher proportion of Wnt.
Pooled eluted Wnt fractions from Blue Sepharose purification were concentrated by […] to 5 or 10 ml volume using Centricon or Amicon Ultra 30 ultrafiltration device (Amicon) depending on size of […] column. […]

[2] = target: T1, hFz1 (Homo sapiens, UniProt Q9UP38); experiment: Europium-GTP assay of G protein (Go) activation by hFz1 membranes; assay type: biochemical; settings: for relative stimulation among the Wnt ligands tested: detergent-solubilized hFz1, GTP incorporation into Go; for activation of the trimeric Go protein (GTP incorporation into Go): detergent-solubilized hFz1-expressing membrane fractions, not control membranes
T1 construct: made in house; host or cells: Escherichia coli (pMAL-p2), membrane fraction
T1 sequence (Q9UP38 70-647): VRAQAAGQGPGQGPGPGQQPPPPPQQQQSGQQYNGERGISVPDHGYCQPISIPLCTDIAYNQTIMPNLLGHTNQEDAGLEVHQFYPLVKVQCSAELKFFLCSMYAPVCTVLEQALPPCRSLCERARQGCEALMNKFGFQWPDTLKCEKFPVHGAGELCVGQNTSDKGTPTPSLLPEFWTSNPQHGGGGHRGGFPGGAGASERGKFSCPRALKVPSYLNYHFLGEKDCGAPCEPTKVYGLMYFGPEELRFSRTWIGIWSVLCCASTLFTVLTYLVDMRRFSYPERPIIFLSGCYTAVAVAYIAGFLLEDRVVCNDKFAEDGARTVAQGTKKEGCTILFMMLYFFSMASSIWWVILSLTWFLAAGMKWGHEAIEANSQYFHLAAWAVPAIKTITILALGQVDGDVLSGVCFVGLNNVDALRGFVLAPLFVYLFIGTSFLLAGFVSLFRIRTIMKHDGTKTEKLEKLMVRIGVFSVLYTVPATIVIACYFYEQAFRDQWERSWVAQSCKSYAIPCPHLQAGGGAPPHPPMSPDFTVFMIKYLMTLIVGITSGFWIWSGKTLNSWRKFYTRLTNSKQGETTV
Experimental: The coding sequence of hFz1 was cloned in-frame into the pMAL-p2 plasmid (New England BioLabs) allowing expression of the protein as an N-terminal fusion with maltose binding protein (MBP). The natural signal sequence of MBP directs the fusion protein through the cytoplasmic membrane. Expression conditions were optimized to allow slow expression to maximize correct hFz1 folding: Expression was performed at 18° C. for 18 h, and in the presence of glucose to minimize the expression of endogenous MBP protein.
Bacteria were harvested by centrifugation, resuspended in PBS (phosphate-buffered saline) and disrupted by French press. The resultant suspension was cleared from the cell debris by low-speed centrifugation, followed by ultracentrifugation to pellet the membranes expressing MBP-hFz1. The membranes were resuspended in PBS supplemented with the protease-inhibitor cocktail (Roche) and frozen in aliquots at −80° C. Control bacteria were transformed with the empty pMAL-p2 vector, induced with IPTG, grown and harvested in parallel with hFz1-transformed bacteria.
HFz1 coding sequence was subcloned into pIRES2-DsRed-Express plasmid (Invitrogen). CHO cells were transiently transfected with lipofectamine following manufacturer's protocol. Transfection efficiency was estimated to be >50%. Two days post-transfection, transfected cells in parallel with control non-transfected cells of a similar cell density were washed, detached with EDTA, pelleted, washed with PBS, and disrupted in a glass-rod homogenizer in a hypotonic buffer (10 mM Hepes pH 7.5). Membrane fraction was prepared and stored as above.
Europium-GTP assay of G protein activation using a time-resolved fluorescence assay was performed. In one well of a 96-well AcroWell plate, 100 μl were mixed containing 4-10 μg/ml membrane protein from the hFz1 expression in bacteria or in CHO, 50 mM Hepes, pH 7.4, 1 mM MgCl2, 50 mM NaCl and 1 mg/ml saponin. Bacterial membranes expressing hFz1 or bacterial control membranes were used at 0.1 mg/ml protein concentration for membrane protein preparation. CHO membranes expressing hFz1 or CHO control membranes were used at 0.01 mg/ml protein concentration. Varying amounts of the following were added: bovine brain Go (Calbiochem), Wnt3a (R&Dsystems), Wnt3a-conditioned or control L-cell medium. Extra GDP was omitted in most experiments. 30 min after incubating this mixture at room temperature on a shaker (100 rpm), Europium-GTP was added, and incubation was continued for 30 more min. Afterwards the content of the wells was filtered and washed using the Multiscreen Vacuum Manifold (Millipore). Amounts of Europium-GTP retained by the membranes were then measured using the Perkin Elmer Victor3 Multilabel Plate Reader.

[3] = target: T2, hFz7 (Homo sapiens, UniProt O75084); experiment: in vitro Go activation assay with bacterially expressed hFz7; assay type: biochemical; settings: detergent-solubilized bacterially expressed hFz7
T2 construct: made in house
Description: (§1) The results obtained with three human Frizzled receptors (hFz1, hFz6, hFz7) and four Wnt ligands (Wnt3a, Wnt5a, Wnt5b, and Wnt7a) allow to compose a table of pair-wise Wnt-Frizzled activations using Go stimulation as the read-out (FIG. 5C).
(§2) Detergent-solubilized hFz6 and Fz7 stimulated GTP incorporation into Go in the presence of different Wnt ligands. Data are presented in FIG. 5C as summary of the capacity of the tested Wnt ligands to stimulate the tested Frizzled receptors to activate Go in vitro. […] Go activation by the Wnt-Frizzled pairs is denoted (in the order of the decreasing activation capacity) as “+++”, “++”, “+”, “+/−”, and “−” using as criteria the lowest Go-activating Wnt concentration as well as the maximal Go activation level achieved by any Wnt concentration.
(§3) Europium-GTP assay of G protein activation using a time-resolved fluorescence assay was performed. In one well of a 96-well AcroWell plate, 100 μl were mixed containing 4-10 μg/ml membrane protein from the hFz1 expression in bacteria or in CHO, 50 mM Hepes, pH 7.4, 1 mM MgCl2, 50 mM NaCl and 1 mg/ml saponin. Bacterial membranes expressing hFz1 or bacterial control membranes were used at 0.1 mg/ml protein concentration for membrane protein preparation. […] Amounts of Europium-GTP retained by the membranes were then measured using the Perkin Elmer Victor3 Multilabel Plate Reader.

[4] = target: T3, hFz6 (Homo sapiens, UniProt O60353); experiment: in vitro Go activation assay with bacterially expressed hFz6; assay type: biochemical; settings: detergent-solubilized bacterially expressed hFz6
T3 construct: made in house
Description: as §1, §2, §3

Row | Molecule | relative stimulation among the Wnt ligands tested [2] | activation of the trimeric Go protein (GTP incorporation into Go) [2] | other results
1 | Wnt3a | most active | – | solubility and activity maintained at a maximum concentration [1]: ≤ 100 µg/mL; stimulation of hFz1 activity towards Go ([2]; E. coli-produced hFZ1 membranes, 0.3 μg/ml purified Wnt3a): stimulated
2 | fMDGCEL [reference compound] | – | – | stimulation of hFz1 activity towards Go ([2]; E. coli produced hFz1 membranes, Wnt5a mimetic peptide): can be stimulated
3 | B1 | most active | concentration-dependent activation | Go activation by hFz7 upon addition of ligand [3]: mostly stimulated
4 | B2 | more modest stimulation | concentration-dependent activation | –
5 | B3 | more modest stimulation | concentration-dependent activation | Go activation by hFz6 upon addition of ligand [4]: activated Go
